The results in this text go back to IntAct's records for PubMed 25416956.

First the molecules themselves.
B1: Zinc finger protein 41 (Homo sapiens), P51814 (parent)
chain: MAANGDSPPWSPALAAEGRGSSCEVRRERTPEARIHSVKRYPDLSPGPKGRSSADHAALNSIVSLQASVSFEDVTVDFSKEEWQHLDPAQRRLYWDVTLENYSHLLSVGYQIPKSEAAFKLEQGEGPWMLEGEAPHQSCSGEAIGKMQQQGIPGGIFFHCERFDQPIGEDSLCSILEELWQDNDQLEQRQENQNNLLSHVKVLIKERGYEHKNIEKIIHVTTKLVPSIKRLHNCDTILKHTLNSHNHNRNSATKNLGKIFGNGNNFPHSPSSTKNENAKTGANSCEHDHYEKHLSHKQAPTHHQKIHPEEKLYVCTECVMGFTQKSHLFEHQRIHAGEKSRECDKSNKVFPQKPQVDVHPSVYTGEKPYLCTQCGKVFTLKSNLITHQKIHTGQKPYKCSECGKAFFQRSDLFRHLRIHTGEKPYECSECGKGFSQNSDLSIHQKTHTGEKHYECNECGKAFTRKSALRMHQRIHTGEKPYVCADCGKAFIQKSHFNTHQRIHTGEKPYECSDCGKSFTKKSQLHVHQRIHTGEKPYICTECGKVFTHRTNLTTHQKTHTGEKPYMCAECGKAFTDQSNLIKHQKTHTGEKPYKCNGCGKAFIWKSRLKIHQKSHIGERHYECKDCGKAFIQKSTLSVHQRIHTGEKPYVCPECGKAFIQKSHFIAHHRIHTGEKPYECSDCGKCFTKKSQLRVHQKIHTGEKPNICAECGKAFTDRSNLITHQKIHTREKPYECGDCGKTFTWKSRLNIHQKSHTGERHYECSKCGKAFIQKATLSMHQIIHTGKKPYACTECQKAFTDRSNLIKHQKMHSGEKRYKASD
B2: Fructose-1,6-bisphosphatase 1 (Homo sapiens), P09467 (parent)
chain: MADQAPFDTDVNTLTRFVMEEGRKARGTGELTQLLNSLCTAVKAISSAVRKAGIAHLYGIAGSTNVTGDQVKKLDVLSNDLVMNMLKSSFATCVLVSEEDKHAIIVEPEKRGKYVVCFDPLDGSSNIDCLVSVGTIFGIYRKKSTDEPSEKDALQPGRNLVAAGYALYGSATMLVLAMDCGVNCFMLDPAIGEFILVDKDVKIKKKGKIYSLNEGYARDFDPAVTEYIQRKKFPPDNSAPYGARYVGSMVADVHRTLVYGGIFLYPANKKSPNGKLRLLYECNPMAYVMEKAGGMATTGKEAVLDVIPTDIHQRAPVILGSPDDVLEFLKVYEKHSAQ
partner: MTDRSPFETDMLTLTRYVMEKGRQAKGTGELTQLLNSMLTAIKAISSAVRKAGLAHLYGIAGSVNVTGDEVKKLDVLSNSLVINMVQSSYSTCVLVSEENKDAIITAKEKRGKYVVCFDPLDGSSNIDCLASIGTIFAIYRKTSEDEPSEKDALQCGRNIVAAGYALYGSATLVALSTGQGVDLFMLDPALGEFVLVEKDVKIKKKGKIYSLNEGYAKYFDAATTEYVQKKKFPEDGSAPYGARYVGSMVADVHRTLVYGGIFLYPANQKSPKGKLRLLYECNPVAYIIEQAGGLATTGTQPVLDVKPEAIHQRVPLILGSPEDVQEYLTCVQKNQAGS
B3: Keratin, type II cytoskeletal 6A (Homo sapiens), P02538 (parent)
chain: MASTSTTIRSHSSSRRGFSANSARLPGVSRSGFSSVSVSRSRGSGGLGGACGGAGFGSRSLYGLGGSKRISIGGGSCAISGGYGSRAGGSYGFGGAGSGFGFGGGAGIGFGLGGGAGLAGGFGGPGFPVCPPGGIQEVTVNQSLLTPLNLQIDPTIQRVRAEEREQIKTLNNKFASFIDKVRFLEQQNKVLETKWTLLQEQGTKTVRQNLEPLFEQYINNLRRQLDSIVGERGRLDSELRGMQDLVEDFKNKYEDEINKRTAAENEFVTLKKDVDAAYMNKVELQAKADTLTDEINFLRALYDAELSQMQTHISDTSVVLSMDNNRNLDLDSIIAEVKAQYEEIAQRSRAEAESWYQTKYEELQVTAGRHGDDLRNTKQEIAEINRMIQRLRSEIDHVKKQCANLQAAIADAEQRGEMALKDAKNKLEGLEDALQKAKQDLARLLKEYQELMNVKLALDVEIATYRKLLEGEECRLNGEGVGQVNISVVQSTVSSGYGGASGVGSGLGLGGGSSYSYGSGLGVGGGFSSSSGRAIGGGLSSVGGGSSTIKYTTTSSSSRKSYKH
partner: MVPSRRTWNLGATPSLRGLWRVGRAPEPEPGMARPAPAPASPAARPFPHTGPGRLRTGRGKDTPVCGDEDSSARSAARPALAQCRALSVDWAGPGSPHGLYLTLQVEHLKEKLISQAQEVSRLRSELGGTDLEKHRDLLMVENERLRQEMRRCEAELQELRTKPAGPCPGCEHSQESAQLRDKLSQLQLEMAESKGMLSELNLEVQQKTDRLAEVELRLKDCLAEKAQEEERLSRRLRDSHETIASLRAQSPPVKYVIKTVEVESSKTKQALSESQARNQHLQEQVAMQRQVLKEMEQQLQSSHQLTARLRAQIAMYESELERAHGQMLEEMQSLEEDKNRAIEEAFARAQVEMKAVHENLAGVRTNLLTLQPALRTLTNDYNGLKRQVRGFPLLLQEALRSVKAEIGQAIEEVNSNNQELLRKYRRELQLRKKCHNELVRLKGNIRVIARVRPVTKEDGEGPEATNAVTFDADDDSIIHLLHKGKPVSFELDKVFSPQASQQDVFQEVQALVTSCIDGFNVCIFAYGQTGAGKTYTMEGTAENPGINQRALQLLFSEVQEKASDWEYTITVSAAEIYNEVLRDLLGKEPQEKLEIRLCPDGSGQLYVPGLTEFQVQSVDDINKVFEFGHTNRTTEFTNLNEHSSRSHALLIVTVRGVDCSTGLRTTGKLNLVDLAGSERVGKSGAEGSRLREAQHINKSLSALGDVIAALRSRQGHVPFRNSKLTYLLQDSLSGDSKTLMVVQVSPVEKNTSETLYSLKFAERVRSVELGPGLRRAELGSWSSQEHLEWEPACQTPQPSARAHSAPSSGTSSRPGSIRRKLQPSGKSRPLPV

Variants of B1 are the subject of one experiment. As to conditions: with fam9b_human FAM9B.
As for Q111L, the “effect of a mutation on the interaction” value is on record as “disrupting interaction”.

Another experiment covers variants of B2. The settings on record: with FBP2, O00757.
For the variant MADQAPFDTDVNTLTRFVMEEGRKARGTGELTQLLNSLCTAVKAISSAVRKAGIAHLYGIAGSTNVTGDQVKKLDVLSNDLVMNMLKSSFATCVLVSEEDKHAIIVEPEKRGKYVVCFDPLDGSSNIDCLVSVGTIFGIYRKKSTDEPSEKDALQPGRNLVAAGYALYGSATMLVLAMDCGVNCFMLDPAIGESILVDKDVKIKKKGKIYSLNEGYARDFDPAVTEYIQRKKFPPDNSAPYGARYVGSMVADVHRTLVYGGIFLYPANKKSPNGKLRLLYECNPMAYVMEKAGGMATTGKEAVLDVIPTDIHQRAPVILGSPDDVLEFLKVYEKHSAQ [F194S], the “effect of a mutation on the interaction” value is given as “disrupting interaction”.

Variants of B2 are the subject of the next experiment. The settings on record: with FBP2, O00757. This is another data set of the same source.
With MADQAPFDTDVNTLTRFVMEEGRKARGTGELTQLLNSLCTAVKAISSAVRKAGIAHLYGIAGSTNVTGDQVKKLDVLSNDLVMNMLKSSFATCVLVSEEDKHAIIVEPEKRGKYVVCFDPLDGSSNIDCLVSVGTIFGIYRKKSTDEPSEKDALQPGRNLVAAGYALYGSATMLVLAMDCGVNCFMLDPAIGEFILVDKDVKIKKKGKIYSLNEGYARDFDPAVTEYIQRKKFPPDNSAPYGARYVGSMVADVHRTLVYRGIFLYPANKKSPNGKLRLLYECNPMAYVMEKAGGMATTGKEAVLDVIPTDIHQRAPVILGSPDDVLEFLKVYEKHSAQ [G260R], the “effect of a mutation on the interaction” value is given as “disrupting interaction”.

In a further experiment the parent is B3. As to conditions: with kifc3_human KIFC3, Q9BVG8.
For the variant MASTSTTIRSHSSSRRGFSANSARLPGVSRSGFSSVSVSRSRGSGGLGGACGGAGFGSRSLYGLGGSKRISIGGGSCAISGGYGSRAGGSYGFGGAGSGFGFGGGAGIGFGLGGGAGLAGGFGGPGFPVCPPGGIQEVTVNQSLLTPLNLQIDPTIQRVRAEEREQIKTLKNKFASFIDKVRFLEQQNKVLETKWTLLQEQGTKTVRQNLEPLFEQYINNLRRQLDSIVGERGRLDSELRGMQDLVEDFKNKYEDEINKRTAAENEFVTLKKDVDAAYMNKVELQAKADTLTDEINFLRALYDAELSQMQTHISDTSVVLSMDNNRNLDLDSIIAEVKAQYEEIAQRSRAEAESWYQTKYEELQVTAGRHGDDLRNTKQEIAEINRMIQRLRSEIDHVKKQCANLQAAIADAEQRGEMALKDAKNKLEGLEDALQKAKQDLARLLKEYQELMNVKLALDVEIATYRKLLEGEECRLNGEGVGQVNISVVQSTVSSGYGGASGVGSGLGLGGGSSYSYGSGLGVGGGFSSSSGRAIGGGLSSVGGGSSTIKYTTTSSSSRKSYKH [N171K], the “effect of a mutation on the interaction” value is listed as “disrupting interaction”.

The next experiment covers variants of B3. As to conditions: with kifc3_human KIFC3, Q9BVG8. The source holds these as a separate data set.
Take MASTSTTIRSHSSSRRGFSANSARLPGVSRSGFSSVSVSRSRGSGGLGGACGGAGFGSRSLYGLGGSKRISIGGGSCAISGGYGSRAGGSYGFGGAGSGFGFGGGAGIGFGLGGGAGLAGGFGGPGFPVCPPGGIQEVTVNQSLLTPLNLQIDPTIQRVRAEEREQIKTLNNKFASFIDKVRFLEQQNKVLETKWTLLQEQGTKTVRQNLEPLFEQYINNLRRQLDSIVGERGRLDSELRGMQDLVEDFKNKYEDEINKRTAAENEFVTLKKDVDAAYMNKVELQAKADTLTDEINFLRALYDAELSQMQTHISDTSVVLSMDNNRNLDLDSIIAEVKAQYEEIAQRSRAEAESWYQTKYEELQVTAGRHGDDLRNTKQEIAEINRMIQRLRSEIDHVKKQCANLQAAIADAEQRGEMALKDAKNKLEGLEDALQKAKQDLARLLKEYQELMNVKLALDVEIPTYRKLLEGEECRLNGEGVGQVNISVVQSTVSSGYGGASGVGSGLGLGGGSSYSYGSGLGVGGGFSSSSGRAIGGGLSSVGGGSSTIKYTTTSSSSRKSYKH [A463P]: the “effect of a mutation on the interaction” value was “disrupting interaction”.

In another experiment the parent is B3. The settings on record: with kifc3_human KIFC3, Q9BVG8. The source holds these as a separate data set.
Regarding MASTSTTIRSHSSSRRGFSANSARLPGVSRSGFSSVSVSRSRGSGGLGGACGGAGFGSRSLYGLGGSKRISIGGGSCAISGGYGSRAGGSYGFGGAGSGFGFGGGAGIGFGLGGGAGLAGGFGGPGFPVCPPGGIQEVTVNQSLLTPLNLQIDPTIQRVRAEEREQIKTLNNKFASFIDKVRFLEQQNKVLETKWTLLQEQGTKTVRQNLEPLFEQYINNLRRQLDSIVGERGRLDSELRGMQDLVEDFKNKYEDEINKRTAAENEFVTLKKDVDAAYMNKVELQAKADTLTDEINFLRALYDAELSQMQTHISDTSVVLSMDNNRNLDLDSIIAEVKAQYEEIAQRSRAEAESWYQTKYEELQVTAGRHGDDLRNTKQEIAEINRMIQRLRSEIDHVKKQCANLQAAIADAEQRGEMALKDAKNKLEGLEDALQKAKQDLARLLKEYQELMNVKLALDVESATYRKLLEGEECRLNGEGVGQVNISVVQSTVSSGYGGASGVGSGLGLGGGSSYSYGSGLGVGGGFSSSSGRAIGGGLSSVGGGSSTIKYTTTSSSSRKSYKH [I462S], the “effect of a mutation on the interaction” value is listed as “disrupting interaction”.
